Entries after “also recorded” stand apart in the source; their conditions may differ.
Experiments:
[1] = test system: HT29, HCT116, and SW620 cells; test: Cell cycle analysis by flow cytometry; assay type: cell-based, human; conditions: 5 μg/ml
[2] = test system: PDAC cell-mediated tumor growth; test: Mouse xenograft PDAC model; assay type: in vivo; conditions: mouse PDAC xenograft models
Experimental: Mouse xenograft PDAC model and anti-RON ADC treatment: Female athymic nude mice were injected with 5×106 L3.6PL, BxPC-3, or FG cells into the subcutaneous space of the right flank. Treatment began when all tumors have reached an average tumor volume of 100 to 200 mm3 The single-dose effect was studied by injection of 20 mg/kg Zt/g4-DM1. Tumor volumes were determined every four days using a previously described formula: V=pi/6×1.58×(length×width)3/2.

[3] = test system: HCT116-luc2 xenograft tumor; test: HCT116-luc2 mouse xenograft tumor model; assay type: in vivo; conditions: single dose 20 mg/kg
Experimental: Athymic nude mice (five mice per group) were subcutaneously inoculated with 5×10^6 HCT116, HT29, and SW620 cells followed by injection of 20 mg/kg Zt/g4-DM1 through tail vein. FIG. 4A: Tumor growth from HT29-luc2 or HCT116-luc2 cells was determined by measuring average photon intensity (left panel). SW620-derived tumor growth was monitored by measuring tumor volume (FIG. 4B) (right panel). FIG. 4C: Tumor images with photon emission or caliper measurement at day 16 are presented. The scale from minimal to maximal is set at 300 to 35,000 photons per second. The percentages of inhibition were calculated from the average photon emission (for HT29 and HCT116 cells) or tumor volume (for SW620 cells). […] The percentages of inhibition were calculated by a formula: (average tumor weight from Zt/g4-DM1 treated group/average tumor weight from control mice)×100%;
Mouse xenograft CRC model and anti-RON ADC treatment: All mice studies were approved by the institutional animal care committee. […] Bioluminescence from individual tumors was measured every four days using Caliper IVIS image system (PerkinElmer). Tumor volumes from SW620-derived tumors were measured according to a formula: V=pi/6×1.58×(length×width)^3/2 (18,33). […]
The inventors first determined the efficacy of a single dose of Zt/g4-DM1 at 20 mg/kg body weight on tumors derived from HCT116, HT29, and SW620 cells. […]

[4] = test system: HT29-Luc2 xenograft tumor; test: HT29-luc2 mouse xenograft tumor model; assay type: in vivo; conditions: for tumor growth inhibited: five injection regimen
Experimental: Athymic nude mice (five mice per group) were subcutaneously inoculated with 5×10^6 HCT116, HT29, and SW620 cells followed by injection of 20 mg/kg Zt/g4-DM1 through tail vein. FIG. 4A: Tumor growth from HT29-luc2 or HCT116-luc2 cells was determined by measuring average photon intensity (left panel). SW620-derived tumor growth was monitored by measuring tumor volume (FIG. 4B) (right panel). FIG. 4C: Tumor images with photon emission or caliper measurement at day 16 are presented. The scale from minimal to maximal is set at 300 to 35,000 photons per second. The percentages of inhibition were calculated from the average photon emission (for HT29 and HCT116 cells) or tumor volume (for SW620 cells). FIG. 4D: Individual tumors from different groups were weighed at day 28. The percentages of inhibition were calculated by a formula: (average tumor weight from Zt/g4-DM1 treated group/average tumor weight from control mice)×100%;
FIGS. 5A to 5F show the evaluation of different doses of Zt/g4-DM1 on tumor growth and RON expression. FIG. 5A: Effect of multi-dose of Zt/g4-DM1 on tumor growth was tested in HT29 cell-induced tumors. Tumor-bearing mice were treated with different doses of Zt/g4-DM1 every four days for a total of five injections ( ? ). Tumor growth was determined by the average bioluminescence intensity. FIG. 5B: An IC50 value based on the average bioluminescence intensity from individual groups at day 31 was calculated using GraphPad Prism 6 software. FIG. 5C: Bioluminescence images of individual tumors from each group at day 31 are shown. The percentages of inhibition were calculated from the average photon emission. The color scale from minimal to maximal is set at 300 to 35,000 photons per second. FIG. 5D: Individual tumors from different groups were collected and weighed at day 31, 35, and 43, respectively. The percentages of inhibition were calculated as detailed in FIG. 4C. FIG. 5E: Samples of HT29 cell-derived xenograft tumors from both control and 15 mg/kg Zt/g4-DM1-treated mice at day 31 were processed for histological examination. […] FIG. 5F: Western blot analysis of RON expression in tumors samples from both control and 15 mg/kg Zt/g4-DM1-treated mice. Densitometry analysis was performed to determine the levels of RON expression;
Mouse xenograft CRC model and anti-RON ADC treatment: All mice studies were approved by the institutional animal care committee. Female athymic nude mice at 6 weeks of age (Taconic, Cranbury, N.J.) were injected with 5×10^6 HT29-Luc2, HCT116-luc2, or SW620 cells in the subcutaneous space of the right flank as previously described (18,33). Mice were randomized into different groups (five mice per group). […] The single-dose group received a tail vein injection of 20 mg/kg Zt/g4-DM1 in 0.1 ml PBS followed by observation for 28 days. The multi-dose study was performed by treating mice with Zt/g4-DM1 at 1, 3, 7, 10, and 15 mg/kg every four days for a total of five injections. Bioluminescence from individual tumors was measured every four days using Caliper IVIS image system (PerkinElmer). Tumor volumes from SW620-derived tumors were measured according to a formula: V=pi/6×1.58×(length×width)^3/2 (18,33). Animals were euthanized when tumor volumes exceeded 2000 mm^3 or if tumors became necrotic or ulcerated through the skin.
The inventors first determined the efficacy of a single dose of Zt/g4-DM1 at 20 mg/kg body weight on tumors derived from HCT116, HT29, and SW620 cells. Tumor growth by HCT116-luc2 and HT29-luc2 cells was measured by bioluminescence emitted from tumor cells. SW620-mediated tumors were evaluated by tumor volume (18,34).

three CRC cell lines = test: Cell viability, three CRC cell lines together; conditions: 72 h after treatment
Experimental: Cell viability and death assays: Cell viability 72 h after Zt/g4-DM1 treatment was determined by the MTT assay (22). Viable or dead cells were determined by the trypan blue exclusion assay. A total of 900 cells were counted from three individual wells to reach the percentages of dead cells.

[5] = 15 mg/kg every four days x5, day 31

B1: Zt/g4-DM1: anti-RON mouse mAb Zt/g4 conjugated to maytansinoid DM1 via non-reducible thioether linkage (SMCC), DAR about 4:1 (conjugate)
VH: EVQLQQSGAELVKPGASVKLSCTTSGFNIIDTYIHWVNQKPDQGLEWIGRIDPADGNRKSDPKFQVKATITVDTSSNTAYLQLSSLTSGDTAVYYCARGYGNLNAMDSWGQGTSVTVSS
VL: DIQMNQSPSSLSASLGDTITITCHASQNINVWLNWYQQKPGNIPKLLIYKASNLHTGVPSRFSGSGSGTGFTLTISSLQPEDIATYYCQQGQSYPLTFGGGTKLEIK
time at which cell cycle profile changes were observed [1]: ≤ 3 h | effect on cell cycle ([1]; three CRC cell lines): dramatic increase in G2/M phase | inhibition of PDAC xenograft tumor growth [2]: highly effective in inhibiting PDAC cell-mediated tumor growth; also recorded: highly effective in inhibition of xenograft PDAC growth | inhibition by average bioluminescence intensity ([3]; day 16): More than 95% | inhibition rate by average tumor weight ([3]; day 28): 58.0% | inhibition of tumor growth ([4]; 1 mg/kg every four days x5): no inhibition of tumor growth | inhibition of tumor growth ([4]; 3 mg/kg every four days x5): no inhibition of tumor growth | inhibition by average photon emission ([4]; 7 mg/kg every four days x5, day 19 to 43): more than 80% | inhibition by tumor weight ([4]; 7 mg/kg every four days x5, day 43): Significant inhibition was still observed | tumor growth inhibited ([4]; 7 mg/kg): more than 90% | inhibition by average photon emission ([4]; 10 mg/kg every four days x5, day 31): More than 95% | inhibition by tumor weight ([4]; 10 mg/kg every four days x5, day 43): Significant inhibition was still observed | tumor growth inhibited ([4]; 10 mg/kg): more than 90% | inhibition at average tumor weight [4, 5]: 90% | inhibition by average photon emission [4, 5]: More than 95% | average percentage of dead areas in a tumor mass ([4]; 15 mg/kg, day 31, H&E staining): 65%±7.4 | RON expression in treated tumors ([4]; 15 mg/kg, day 31, Western blot, control 100%): 16.44%±5.75 | tumor growth inhibited ([4]; 15 mg/kg): more than 90% | IC50 dose (dose achieving 50% tumor inhibition) ([4]; multi-dose, average photons at day 31): 5.01 mg/kg | inhibition by average bioluminescence intensity ([4]; single dose 20 mg/kg, day 16): More than 95% | inhibition rate by average tumor weight ([4]; single dose 20 mg/kg, day 28): 50.98% | reduction in cell viability (three CRC cell lines): More than 80%

— patent US20160311918A1, “Anti-Ron Monoclonal Antibodies as a Cytotoxic Drug Delivery System for Targeted Cancer Therapy” (TEXAS TECH UNIVERSITY SYSTEM, priority 2013, published 2016)
